In patent publication US20210290759A1 (BRAVOVAX, published 2021):

B1: ASF fusion protein (N-terminal D0-D1-gE-C-terminal D1-D0, LT2) (other)
chain: AQVINTNSLSLLTQNNLNKSQSALGTAIERLSSGLRINSAKDDAAGQAIANRFTANIKGLTQASRNANDGISIAQTTEGALNEINNNLQRVRELAVQSANSTNSQSDLDSIQAEITQRLNEIDRVSGQTQFNGVKVLAQDNTLTIQVGANDGETIDIDLKQINSQTLGLDTLNVQGGGGSGGGGSGGGGSSVLRYDDFHIDEDKLDTNSVYEPYYHSDHAESSWVNRGESSRKAYDHNSPYIWPRNDYDGFLENAHEHHGVYNQGRGIDSGERLMQPTQMSAQEDLGDDTGIHVIPTLNGDDRHKIVNVDQRQYGDVFKGDLNPKPQGQRLIEVSVEENHPFTLRAPIQRIYGVRYTETWSFLPSLTCTGDAAPAIQHICLKHTTCFQDVVVDVDCAENTKEDQLAEISYRFQGKKEADQPWIVVNTSTLFDELELDPPEIEPGVLKVLRTEKQYLGVYIWNMRGSDGTSTYATFLVTWKGDEKTRNPTPAVTPQPRGAEFHMWNYHSHVFSVGDTFSLAMHLQYKIHEAPFDLLLEWLYVPIDPTCQPMRLYSTCLYHPNAPQCLSHMNSGCTFTSPHLAQRVASTVYQNCEHADNYTAYCLGISHMEPSFGLILHDGGTTLKFVDTPESLSGLYVFVVYFNGHVEAVAYTVVSTVDHFVNAIEERGFPPTAGQPPATTKPKEITPVNPGTSPLIRGGGGSGGGGSGGGGSKAQPDLAEAAATTTENPLQKIDAALAQVDTLRSDLGAVQNRFNSAITNLGNTVNNLTSARSRIEDSDYATEVSNMSRAQILQQAGTSVLAQANQVPQNVLSLLR
B2: ACF fusion protein (gE-N-terminal D0-D1-C-terminal D1-D0, LT2) (other)
chain: SVLRYDDFHIDEDKLDTNSVYEPYYHSDHAESSWVNRGESSRKAYDHNSPYIWPRNDYDGFLENAHEHHGVYNQGRGIDSGERLMQPTQMSAQEDLGDDTGIHVIPTLNGDDRHKIVNVDQRQYGDVFKGDLNPKPQGQRLIEVSVEENHPFTLRAPIQRIYGVRYTETWSFLPSLTCTGDAAPAIQHICLKHTTCFQDVVVDVDCAENTKEDQLAEISYRFQGKKEADQPWIVVNTSTLFDELELDPPEIEPGVLKVLRTEKQYLGVYIWNMRGSDGTSTYATFLVTWKGDEKTRNPTPAVTPQPRGAEFHMWNYHSHVFSVGDTFSLAMHLQYKIHEAPFDLLLEWLYVPIDPTCQPMRLYSTCLYHPNAPQCLSHMNSGCTFTSPHLAQRVASTVYQNCEHADNYTAYCLGISHMEPSFGLILHDGGTTLKFVDTPESLSGLYVFVVYFNGHVEAVAYTVVSTVDHFVNAIEERGFPPTAGQPPATTKPKEITPVNPGTSPLIRGGGGSGGGGSGGGGSAQVINTNSLSLLTQNNLNKSQSALGTAIERLSSGLRINSAKDDAAGQAIANRFTANIKGLTQASRNANDGISIAQTTEGALNEINNNLQRVRELAVQSANSTNSQSDLDSIQAEITQRLNEIDRVSGQTQFNGVKVLAQDNTLTIQVGANDGETIDIDLKQINSQTLGLDTLNVQSPGISGGGGGILDSMGKAQPDLAEAAATTTENPLQKIDAALAQVDTLRSDLGAVQNRFNSAITNLGNTVNNLTSARSRIEDSDYATEVSNMSRAQILQQAGTSVLAQANQVPQNVLSLLR
B3: recombinant VZV gE protein (gE extracellular region), expressed in eukaryotic cells from recombinant adenovirus (other)
chain: SVLRYDDFHIDEDKLDTNSVYEPYYHSDHAESSWVNRGESSRKAYDHNSPYIWPRNDYDGFLENAHEHHGVYNQGRGIDSGERLMQPTQMSAQEDLGDDTGIHVIPTLNGDDRHKIVNVDQRQYGDVFKGDLNPKPQGQRLIEVSVEENHPFTLRAPIQRIYGVRYTETWSFLPSLTCTGDAAPAIQHICLKHTTCFQDVVVDVDCAENTKEDQLAEISYRFQGKKEADQPWIVVNTSTLFDELELDPPEIEPGVLKVLRTEKQYLGVYIWNMRGSDGTSTYATFLVTWKGDEKTRNPTPAVTPQPRGAEFHMWNYHSHVFSVGDTFSLAMHLQYKIHEAPFDLLLEWLYVPIDPTCQPMRLYSTCLYHPNAPQCLSHMNSGCTFTSPHLAQRVASTVYQNCEHADNYTAYCLGISHMEPSFGLILHDGGTTLKFVDTPESLSGLYVFVVYFNGHVEAVAYTVVSTVDHFVNAIEERGFPPTAGQPPATTKPKEITPVNPGTSPLIR
B4: ANF fusion protein (N-terminal D0-D1-C terminal D1-D0-gE, LT2) (other)
chain: AQVINTNSLSLLTQNNLNKSQSALGTAIERLSSGLRINSAKDDAAGQAIANRFTANIKGLTQASRNANDGISIAQTTEGALNEINNNLQRVRELAVQSANSTNSQSDLDSIQAEITQRLNEIDRVSGQTQFNGVKVLAQDNTLTIQVGANDGETIDIDLKQINSQTLGLDTLNVQSPGISGGGGGILDSMGKAQPDLAEAAATTTENPLQKIDAALAQVDTLRSDLGAVQNRFNSAITNLGNTVNNLTSARSRIEDSDYATEVSNMSRAQILQQAGTSVLAQANQVPQNVLSLLRGGGGSGGGGSGGGGSSVLRYDDFHIDEDKLDTNSVYEPYYHSDHAESSWVNRGESSRKAYDHNSPYIWPRNDYDGFLENAHEHHGVYNQGRGIDSGERLMQPTQMSAQEDLGDDTGIHVIPTLNGDDRHKIVNVDQRQYGDVFKGDLNPKPQGQRLIEVSVEENHPFTLRAPIQRIYGVRYTETWSFLPSLTCTGDAAPAIQHICLKHTTCFQDVVVDVDCAENTKEDQLAEISYRFQGKKEADQPWIVVNTSTLFDELELDPPEIEPGVLKVLRTEKQYLGVYIWNMRGSDGTSTYATFLVTWKGDEKTRNPTPAVTPQPRGAEFHMWNYHSHVFSVGDTFSLAMHLQYKIHEAPFDLLLEWLYVPIDPTCQPMRLYSTCLYHPNAPQCLSHMNSGCTFTSPHLAQRVASTVYQNCEHADNYTAYCLGISHMEPSFGLILHDGGTTLKFVDTPESLSGLYVFVVYFNGHVEAVAYTVVSTVDHFVNAIEERGFPPTAGQPPATTKPKEITPVNPGTSPLIR

Experiments:
[1] = molecular target: TLR-5 receptor on THP-1 cells (UniProt O60602); assay: cell-based or functional assay
TLR-5 receptor on THP-1 cells (UniProt O60602), sequence (O60602 21-858 limits assumed): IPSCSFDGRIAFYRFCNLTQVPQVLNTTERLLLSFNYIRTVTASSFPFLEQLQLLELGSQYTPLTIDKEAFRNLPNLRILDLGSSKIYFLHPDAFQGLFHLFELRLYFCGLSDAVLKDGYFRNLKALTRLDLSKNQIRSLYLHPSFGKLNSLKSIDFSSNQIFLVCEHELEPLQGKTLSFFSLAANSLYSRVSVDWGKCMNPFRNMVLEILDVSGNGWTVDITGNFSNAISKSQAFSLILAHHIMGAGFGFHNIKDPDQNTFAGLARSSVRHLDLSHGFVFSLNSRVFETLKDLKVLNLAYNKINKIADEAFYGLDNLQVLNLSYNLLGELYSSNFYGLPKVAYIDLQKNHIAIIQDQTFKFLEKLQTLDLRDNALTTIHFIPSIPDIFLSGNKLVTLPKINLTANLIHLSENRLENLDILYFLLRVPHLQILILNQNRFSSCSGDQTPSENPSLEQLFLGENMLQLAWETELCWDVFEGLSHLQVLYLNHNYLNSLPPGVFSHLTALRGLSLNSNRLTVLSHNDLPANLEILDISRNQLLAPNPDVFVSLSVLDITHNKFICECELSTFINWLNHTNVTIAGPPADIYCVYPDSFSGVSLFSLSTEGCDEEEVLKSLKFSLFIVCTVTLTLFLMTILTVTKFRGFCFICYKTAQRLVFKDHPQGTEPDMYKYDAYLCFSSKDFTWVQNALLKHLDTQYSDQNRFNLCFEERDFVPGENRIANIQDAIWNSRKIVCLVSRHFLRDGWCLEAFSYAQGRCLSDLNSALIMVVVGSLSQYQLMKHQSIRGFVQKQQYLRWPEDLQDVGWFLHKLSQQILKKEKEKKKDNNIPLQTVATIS

[2] = molecular target: TLR-5 receptor on THP-1 cells (UniProt O60602 21-858); assay: cell-based or functional assay
TLR-5 receptor on THP-1 cells (UniProt O60602 21-858), sequence (O60602 21-858 limits assumed): as above

Molecule | IL-8 content in THP-1 supernatant, stimulation at 2.5 ug/mL [1] [ng] | In vitro relative potency (%), IL-8 [1] [%] | In vitro relative potency (%), TNF-α [1] [%] | TNF-α content in THP-1 supernatant, stimulation at 2.5 ug/mL [1] [pg] | IL-8 content in THP-1 supernatant, stimulation at 5 ug/mL [2] [ng] | In vitro relative potency (%), IL-8 [2] [%] | In vitro relative potency (%), TNF-α [2] [%] | TNF-α content in THP-1 supernatant, stimulation at 5 ug/mL [2] [pg]
endotoxin-free flagellin protein (Alpha Diagnostic) (ligand) | 19.6 | 100 | 100 | 969 | – | – | – | –
B1 | – | – | – | – | 27.8 | 142 | 104 | 1000
B2 | – | – | – | – | 6.41 | 32.7 | 11.6 | 112
B3 | – | – | – | – | 0 | 0 | 0 | 0
B4 | – | – | – | – | 10.8 | 55.3 | 57 | 552
